Laboratory results from patent US20200339690A1.

Tests used:
human LILRA1 (human) = human LILRA1 (human) (UniProt O75019); assay: flow cytometry, LILRA1 CHOs
[1] = target: Rhesus Monocytes / Rhesus Neutrophils (Macaca mulatta); assay: flow cytometry, rhesus whole blood, monocytes
[2] = target: Cyno Monocytes / Cyno Neutrophils (Macaca fascicularis); assay: flow cytometry, cyno whole blood, monocytes
human LILRA4 (human) = human LILRA4 (human) (UniProt P59901); assay: flow cytometry, LILRA4 CHOs
[3] = target: human LILRB2 expressed on cells (human) (UniProt Q8N423); assay: flow cytometry, human whole blood, neutrophils
human LILRB2 expressed on cells (human), sequence (Q8N423 other isoform, or with tags, fused parts or gaps limits assumed): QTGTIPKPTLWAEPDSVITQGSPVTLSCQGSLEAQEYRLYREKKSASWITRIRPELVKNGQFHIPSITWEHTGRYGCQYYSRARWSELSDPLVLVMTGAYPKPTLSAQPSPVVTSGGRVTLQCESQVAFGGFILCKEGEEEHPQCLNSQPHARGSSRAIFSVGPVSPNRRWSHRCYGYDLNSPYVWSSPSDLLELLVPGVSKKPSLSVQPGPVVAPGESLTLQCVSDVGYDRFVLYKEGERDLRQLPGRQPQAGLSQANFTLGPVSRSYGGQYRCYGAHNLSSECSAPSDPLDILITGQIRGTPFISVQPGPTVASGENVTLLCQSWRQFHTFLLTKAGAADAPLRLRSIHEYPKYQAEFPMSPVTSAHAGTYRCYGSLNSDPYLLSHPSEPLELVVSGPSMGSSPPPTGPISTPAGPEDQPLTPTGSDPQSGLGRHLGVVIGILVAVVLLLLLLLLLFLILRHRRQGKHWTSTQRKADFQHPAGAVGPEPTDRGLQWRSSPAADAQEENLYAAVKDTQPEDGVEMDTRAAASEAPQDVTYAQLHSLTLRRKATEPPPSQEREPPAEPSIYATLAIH

[4] = target: Cyno Monocytes / Cyno Neutrophils (Macaca fascicularis); assay: flow cytometry, cyno whole blood, neutrophils
[5] = target: human LILRB2 expressed on cells (human) (UniProt Q8N423); assay: flow cytometry, human whole blood, monocytes
[6] = target: Rhesus Monocytes / Rhesus Neutrophils (Macaca mulatta); assay: flow cytometry, rhesus whole blood, neutrophils

human LILRA1 (human), sequence (O75019 17-489 limits assumed): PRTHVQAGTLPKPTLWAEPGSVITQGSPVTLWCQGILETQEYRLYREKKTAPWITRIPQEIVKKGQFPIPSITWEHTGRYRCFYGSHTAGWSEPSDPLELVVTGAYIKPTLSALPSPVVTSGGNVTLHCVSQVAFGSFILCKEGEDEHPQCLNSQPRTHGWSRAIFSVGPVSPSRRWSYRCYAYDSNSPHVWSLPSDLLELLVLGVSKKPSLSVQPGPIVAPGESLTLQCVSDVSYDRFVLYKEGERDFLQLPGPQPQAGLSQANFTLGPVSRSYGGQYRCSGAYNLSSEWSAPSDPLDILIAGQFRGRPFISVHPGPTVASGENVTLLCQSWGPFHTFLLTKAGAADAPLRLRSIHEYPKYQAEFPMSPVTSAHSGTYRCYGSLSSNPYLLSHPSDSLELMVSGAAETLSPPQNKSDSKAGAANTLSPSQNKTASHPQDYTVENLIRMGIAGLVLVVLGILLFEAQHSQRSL
human LILRA4 (human), sequence (P59901 other isoform, or with tags, fused parts or gaps limits assumed): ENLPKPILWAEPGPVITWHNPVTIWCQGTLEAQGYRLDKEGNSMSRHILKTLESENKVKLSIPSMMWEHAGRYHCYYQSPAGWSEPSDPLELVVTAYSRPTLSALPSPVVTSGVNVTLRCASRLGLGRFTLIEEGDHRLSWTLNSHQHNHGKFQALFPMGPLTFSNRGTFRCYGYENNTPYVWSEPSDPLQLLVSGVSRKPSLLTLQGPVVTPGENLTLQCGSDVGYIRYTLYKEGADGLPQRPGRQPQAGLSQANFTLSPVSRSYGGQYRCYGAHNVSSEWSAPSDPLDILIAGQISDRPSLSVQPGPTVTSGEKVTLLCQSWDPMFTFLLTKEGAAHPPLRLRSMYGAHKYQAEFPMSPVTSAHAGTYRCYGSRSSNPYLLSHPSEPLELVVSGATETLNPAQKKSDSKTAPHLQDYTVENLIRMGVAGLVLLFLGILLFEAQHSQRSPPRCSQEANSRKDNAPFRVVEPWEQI

binding (fold over iso) (fold over iso) (human LILRA1 (human)): 1
Rhesus Monocytes binding (fold over iso) (fold over iso) [1]: 1
Cyno Monocytes binding (fold over iso) (fold over iso) [2]: 1
binding (fold over iso) (fold over iso) (human LILRA4 (human)): 1
Human Neutrophils binding (fold over iso) (fold over iso) [3]: 1
Cyno Neutrophils binding (fold over iso) (fold over iso) [4]: 1
Human Monocytes binding (fold over iso) (fold over iso) [5]: 1
Rhesus Neutrophils binding (fold over iso) (fold over iso) [6]: 1
Substance: isotype control mAb (antibody)
